Consider three substances from patent publication US20220195388A1.

Assay [1] addresses CD28 on the surface of PBMCs and T cells (human) (UniProt P10747). The experiment in a line: flow cytometry, selected CD28+ cells after D-biotin and washing, stained with an α-Ig kappa light chain mAb to detect remaining Fab monomers; live CD3+ cells. The same mAb on cells before selection (negative control, no Fab) gives 2.73 in the gate.
Assay [2] deals with CD3 (TCR/CD3 complex) on the surface of Jurkat cells, PBMCs and T responder cells (UniProt P07766). The experiment in a line: flow cytometry, freshly isolated PBMCs stained with PE-labeled OKT3 Fab-multimers, before D-biotin; only live (PI negative) cells shown.
The target is the same in assay [3]. Nature of the assay: flow cytometry, PBMCs stained with PE-labeled OKT3 Fab-multimers and then treated with D-biotin, which disrupts the Fab to Strep-Tactin bond; remaining PE signal on live cells.
Assay [4] shares this target. Nature of the assay: flow cytometry, second staining with PE-labeled OKT3 Fab-multimers of PBMCs that had been stained, treated with D-biotin and washed (control); live cells.
Assay [5] concerns the target CD28 on the surface of PBMCs and T cells (human) (UniProt P10747). Nature of the assay: flow cytometry, CD28+ cells isolated by Fab-multimer magnetic selection, released with D-biotin, washed and stained again with CD28 Fab-multimers; live CD3+ cells.
The target is the same in assay [6]. Nature of the assay: flow cytometry, freshly isolated PBMCs before selection stained with fluorescent αCD28 Fab-multimers; only live (PI negative) CD3+ cells shown.

CD3 (TCR/CD3 complex) on the surface of Jurkat cells, PBMCs and T responder cells, sequence (P07766 23-207, one chain of several): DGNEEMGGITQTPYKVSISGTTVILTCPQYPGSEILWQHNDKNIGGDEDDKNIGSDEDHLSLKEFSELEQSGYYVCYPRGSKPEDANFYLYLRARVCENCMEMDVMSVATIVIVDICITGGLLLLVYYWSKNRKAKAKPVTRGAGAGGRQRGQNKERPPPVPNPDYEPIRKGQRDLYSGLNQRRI

Consider “αCD28 Fab fragment derived from the monoclonal anti-human CD28 antibody CD28.3, heavy chain C-terminally fused to the Twin-Strep-tag (monomeric)”, for which the percentage of cells within gate in assay [1] was 5.91%.
As for “OKT3 Fab fragments multimerized with Strep-Tactin”, the percentage of cells within gate in assay [2] was found to be 64.5%; in assay [3] it was 0.005%; in assay [4], 64.7%.
Consider “anti-CD28 Fab fragments (from CD28.3) multimerized with Strep-Tactin (from UniProt P22629 38-163)”, for which the results for the percentage of cells within gate in assay [5] and in assay [6] were 96.7% and 77.9%, respectively.
